The results in this text go back to the supplement of paper PMC9170038.

The data set deals with MS2 coat protein. Put plainly: apparent KD of MS2 coat protein; higher = weaker reporter binding. The settings on record: Eterna round: R107. The procedure, abridged: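 On-chip transcription from Illumina sequencing clusters produced the designed RNA switches. These were titrated with SNAP-549-labelled MS2 coat protein (twofold steps, 0.7 or 1.5 nM to 3 µM) in 100 mM Tris-HCl pH 7.5, 80 mM KCl, 4 mM MgCl2, with or without constant ligand. The apparent KD given is the per-design median of normalised cluster binding-curve fits.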

Where [1] appears, read: input ligand: theophylline 20 uM.
[2] abbreviates: input ligand: theophylline 2 mM.
Setting [3] is: input ligand: tryptophan 2.4 mM.

In the case of “GGGUGGUAGGCGGCCGCCACUGAUUUUCAUUCAUAGAUGACAUGAGGAUCACCCAUGUUUAUGUGCAGGACCGGGCCUGCUGUGG [aaaU]”, the “apparent KD of MS2 coat protein” value reads like this: (input ligand: arginine 13.2 mM) 43.4 nM; (input ligand: none) 144 nM; under setting [1], 102 nM; under setting [2], 115 nM; under setting [3], 116 nM.

Regarding “GGGUUACUCUAUGAUACCAGUUCCAUGCCGAAACCUGUGUACAUGAGGAUCACCCAUGUGAACCCUUGGCAGCAUUAAUCAACUG [theeternabot_exclusion_MS2_Theo_B_35]”, the “apparent KD of MS2 coat protein” value was 51.5 nM (input ligand: arginine 13.2 mM), 163 nM under setting [1] and 69.5 nM under setting [3].

With “GGUAUGUAUUCGGAAACGAAUGCAUACCAACGAGGACCGGUACGGCCGCCACUCGCGGCUGAUCAACAUGAGGAUCACCCAUGUA [Ex Tryptophan A 4]”, the “apparent KD of MS2 coat protein” value is, setting by setting: (input ligand: arginine 13.2 mM) 19.4 nM; (input ligand: none) 24.8 nM; under setting [1], 33 nM; under setting [2], 31.5 nM; under setting [3], 28.4 nM.

As for “GGUAUGUAUUCGGAAACGAAUGCAUACCAACGAGGACCGGUACGGCCGCCACUCGGCCGUGAUCAACAUGAGGAUCACCCAUGUA [Ex Tryptophan A 6]”, the “apparent KD of MS2 coat protein” value is 16.3 nM (input ligand: arginine 13.2 mM), 21.5 nM under setting [1] and 20.2 nM under setting [2].

On to “GGUCUCUGGAGCGAUACCAGCUUGAUCGUACUGGCCUGGUACAUGAGGAUCACCCAUGUAAGCCCUUGGCAGCGCUCCAGAGACC [#1 Exclusion - Theophylline B Attempt #8 (HarryS)]”, for which the “apparent KD of MS2 coat protein” value reads like this: (input ligand: arginine 13.2 mM) 11.8 nM; under setting [1], 16.3 nM; under setting [3], 11.2 nM.

As to “GGUGGGACUUGUGAUACCAGCCUAAUUCUAAACGAAUUGCACAUGAGGAUCACCCAUGUCGGCCCUUGGCAGCAUGAGUAUUUAU [Anartiison]”, the “apparent KD of MS2 coat protein” value stood at 73.3 nM (input ligand: arginine 13.2 mM), 104 nM under setting [1] and 117 nM under setting [3].

For the sequence “GGUGGUGGGACGGAUACCAGCCACCGCGGCAACGCAACAUGAGGAUCACCCAUGUUGGGUGGCCCUUGGCAGCUGUCCUGCGGCG [#1 Same State - Theophylline B Attempt #25 (HarryS)]”, the “apparent KD of MS2 coat protein” value came out at 12.6 nM (input ligand: arginine 13.2 mM), 18.5 nM under setting [1] and 12.7 nM under setting [3].

For the sequence “GGUGGUGUGACGGAUACCAGCCACCGCGGCAACGCAACAUGAGGAUCACCCAUGUUGGGUGGCCCUUGGCAGCUGUCGUGCGGCG [#1 Same State - Theophylline B Attempt #24 (HarryS)]”, the “apparent KD of MS2 coat protein” value is, setting by setting: (input ligand: arginine 13.2 mM) 40.1 nM; under setting [1], 91.2 nM; under setting [3], 53.9 nM.

As to “GGUGUAAUUGACUCUUUGUUUUAUUUGUAACGAGGACCGGUACGGCCGCCACUCGAUAUUCACAUGAGGAUCACCCAUGUUAGCU [JR_ExcTryptoA_Sub006]”, the “apparent KD of MS2 coat protein” value (input ligand: arginine 13.2 mM) is 19.1 nM, the “apparent KD of MS2 coat protein” value under setting [1] was found to be 22.5 nM and the “apparent KD of MS2 coat protein” value under setting [2] was found to be 24.3 nM.

In the case of “GGUUACUCUACGGCCGCCACUGAACAUGAGGAUCACCCAUGUAAUGUUCAGACGUCUUUAGACGACAGGACCGGGUAGUGUAACC [Tryptophan B 5]”, the “apparent KD of MS2 coat protein” value (input ligand: arginine 13.2 mM) came to 119 nM, the “apparent KD of MS2 coat protein” value under setting [1] worked out at 208 nM and the “apparent KD of MS2 coat protein” value under setting [2] is 232 nM.

For “GGUUACUCUACGGCCGCCACUGUAAAGUAAAGAUACCUGUACAUGACAUGAGGAUCACCCAUGUACAGGACCGGGUAGUGUAACC [Tryptophan B 16]”, the “apparent KD of MS2 coat protein” value is 133 nM (input ligand: arginine 13.2 mM), 636 nM under setting [1] and 804 nM under setting [2].

Regarding “GGUUACUCUACGGCCGCCACUGUCAUGUAAAGAUACCUGUACAUGACAUGAGGAUCACCCAUGUGCAGGACCGGGUAGUGUAACC [Tryptophan B 18]”, the “apparent KD of MS2 coat protein” value reads like this: (input ligand: arginine 13.2 mM) 91.3 nM; under setting [1], 177 nM; under setting [2], 201 nM.

On to “GGUUCCUCAACGGCCGCCACUUACUGGAUUAGUGGACCUACUUGCAACAUGAGGAUCACCCAUGUAAGGACCGGGUUGCUCCCAA [theeternabot_exclusion_MS2_Trp_B_34]”, for which the “apparent KD of MS2 coat protein” value (input ligand: arginine 13.2 mM) came out at 46.9 nM, the “apparent KD of MS2 coat protein” value under setting [1] was 90.1 nM and the “apparent KD of MS2 coat protein” value under setting [2] turned out to be 87.9 nM.

With “GGUUGGUCCUCACAUGAGGAUCACCCAUGUCGAGGACCGGUACGGCCGCCACUCGAUUGUACCAGGGCUUAAGAGCCUAUGAGCA [Erenedquce]”, the “apparent KD of MS2 coat protein” value came to 12.6 nM (input ligand: arginine 13.2 mM), 23.9 nM under setting [1] and 17.6 nM under setting [2].

With “GGUUGGUGUAUAUAUAUAUUGAUUACUGAAGGAGCGGGAAAUAACCCAGGUAGGUCGCAGAGAUCCACAUGAGGAUCACCCAUGU [!0.J]”, the “apparent KD of MS2 coat protein” value (input ligand: arginine 13.2 mM) is 31 nM; the “apparent KD of MS2 coat protein” value (input ligand: none) came to 53.7 nM; the “apparent KD of MS2 coat protein” value under setting [1] was determined as 50.2 nM; the “apparent KD of MS2 coat protein” value under setting [2] came out at 51 nM; the “apparent KD of MS2 coat protein” value under setting [3] turned out to be 38.9 nM.

Turning to “GGUUUCGCGGGCGAUACCAGCUUGAUCGUACUGGCCUGGUACAUGAGGAUCACCCAUGUAAGCCCUUGGCAGCGCGCGCGAGACC [#1 Exclusion - Theophylline B Attempt #4 (HarryS)]”, the “apparent KD of MS2 coat protein” value was 13.3 nM (input ligand: arginine 13.2 mM), 16.9 nM under setting [1] and 11.7 nM under setting [3].

Turning to “GUAAAUUAUAGAAGGAGCGUCGAAAAUGGGUAAACAUGAGGAUCACCCAUGUAAAGGGAACGACAGGUAGGUCGCUAUAAUUUAC [AstromonsSSArgB#15]”, the “apparent KD of MS2 coat protein” value worked out at 116 nM (input ligand: arginine 13.2 mM); 170 nM (input ligand: none); 190 nM under setting [1]; 259 nM under setting [2]; 167 nM under setting [3].
